Measurements published in patent US20250129156A1 (AKESO BIOPHARMA, published 2025).

Tests used:
TGF-β1 [1] = target: T1, TGF-β1 (human, UniProt P01137 279-390); assay: indirect ELISA, TGF-β1 coated at 1 µg/mL
T1 construct: Bought protein; also called human TGF-β1; TGF-β1 protein

TGF-β2 = target: T2, TGF-β2 (UniProt P61812 303-414); assay: indirect ELISA, TGF-β2 coated at 2 µg/mL
T2 construct: Bought protein; also called TGF-β2 protein
T2 sequence (looked up): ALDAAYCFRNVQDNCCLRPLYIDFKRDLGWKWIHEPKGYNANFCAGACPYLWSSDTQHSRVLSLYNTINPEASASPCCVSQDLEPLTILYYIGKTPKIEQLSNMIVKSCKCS

TGF-β1 [2] = target: T1, TGF-β1; assay: competition ELISA vs TGF-βRII-His-Biotin 0.01 µg/mL on coated TGF-β1

- EC50 (TGF-β1 [1]): 0.356 nM
- EC50 (TGF-β2): 1.03 nM
- EC50 (TGF-β1 [2]): 6.47 nM
B1: TGF-βRII-mFc (Fc fusion, UniProt P37173 23-159, looked up, not shown: a dimerising Fc or GST)
chain: TIPPHVQKSVNNDMIVTDNNGAVKFPQLCKFCDVRFSTCDNQKSCMSNCSITSICEKPQEVCVAVWRKNDENITLETVCHDPKLPYHDFILEDAASPKCIMKEKKKPGETFFMCSCSSDECNDNIIFSEEYNTSNPD
notes: also called TGF-βR2-mFc
